The record followed here is PMC10806857.

Like-named read-outs stand apart in the source and are kept apart here.

Experiment in all cases: EMSA
The target of data set [1] is T1, STK19 (TWH19) WT full-length (Homo sapiens, UniProt P49842 1-254).
Another data set concerns the target STK19 3KA (Homo sapiens, UniProt P49842 1-254, K186A;K190A;K201A).
The target of the next data set is STK19 25-C (Homo sapiens, UniProt P49842 25-254).
The target in data set [2] is T1, STK19 (TWH19) WT full-length. The source holds these as a separate data set.
Data set [3] has the same target. This is another data set of the same source.

T1 sequence (P49842 whole entry): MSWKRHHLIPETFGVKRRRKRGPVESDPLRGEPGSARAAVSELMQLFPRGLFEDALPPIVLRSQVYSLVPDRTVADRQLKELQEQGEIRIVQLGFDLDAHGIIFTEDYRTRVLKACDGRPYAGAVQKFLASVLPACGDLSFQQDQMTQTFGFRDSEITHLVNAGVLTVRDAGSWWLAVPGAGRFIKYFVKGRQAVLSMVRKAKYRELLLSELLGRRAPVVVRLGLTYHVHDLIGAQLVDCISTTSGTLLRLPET
Chain of STK19 25-C (P49842 25-254): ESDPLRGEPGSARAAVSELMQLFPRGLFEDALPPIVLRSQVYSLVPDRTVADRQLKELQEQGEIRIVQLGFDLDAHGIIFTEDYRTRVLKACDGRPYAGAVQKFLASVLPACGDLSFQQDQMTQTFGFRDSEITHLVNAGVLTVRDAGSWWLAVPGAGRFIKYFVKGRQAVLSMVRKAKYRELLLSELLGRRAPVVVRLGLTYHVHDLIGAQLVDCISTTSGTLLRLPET
Chain of STK19 3KA (P49842 whole entry K186A/K190A/K201A): as the sequence (P49842 whole entry) above, with K186A, K190A, K201A counted along it

B1: DNA-30 bp-AT (dsDNA)
DNA 1: AAAAAAAAAAAAAAAAAAAAAAAAAAAAAA
DNA 2: TTTTTTTTTTTTTTTTTTTTTTTTTTTTTT
B1: the binding result in data set [1] is listed as “binds”.

B2: DNA1 (dsDNA)
DNA 1: CTGTACTTCCAGGGAATGGAAAGCGACCCTCTGCC
DNA 2: GGCAGAGGGTCGCTTTCCATTCCCTGGAAGTACAG
Consider B2, for which the binding result in the data set with STK19 3KA is recorded as “no binding”. Moreover, in the data set with STK19 25-C, the dissociation constant Kd came out at 3.8 µM.

B3: DNA1 UVB-irradiated (dsDNA)
DNA 1: CTGTACTTCCAGGGAATGGAAAGCGACCCTCTGCC
DNA 2: GGCAGAGGGTCGCTTTCCATTCCCTGGAAGTACAG
modifications: UVB irradiated, lesions undefined
Take B3: the binding result in data set [2] is reported as “binds”.

B4: RNA-30 bp-AT (dsRNA)
RNA 1: AAAAAAAAAAAAAAAAAAAAAAAAAAAAAA
RNA 2: UUUUUUUUUUUUUUUUUUUUUUUUUUUUUU
As to B4, in data set [3], the binding result was “binds”.
